Experimental data as given in patent publication US20240270846A1 (published 2024).

Molecular target: T1, CD3 epsilon homodimer protein (UniProt P07766 23-126)
T1 construct: also called CD3 (CD3 epsilon)
Assay: SPR, CD3e homodimer on chip;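 further: surface plasmon resonance at 25 degrees C, antibodies flowed as analyte over CD3 epsilon homodimer amine-coupled to a CM4 chip, running buffer HBS-EP+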
Protocol: An appropriate amount of CD3 epsilon homodimer protein was immobilized onto Sensor chip CM4 (GE Healthcare Japan Corp.) by the amine coupling method. Then, the antibody having an appropriate concentration was injected thereto as an analyte and allowed to interact with the CD3 epsilon homodimer protein on the sensor chip. Then, the sensor chip was regenerated by the injection of 10 mmol/L glycine-HCl (pH 1.5). The assay was conducted at 25 degrees C., and HBS-EP+(GE Healthcare Japan Corp.) was used as a running buffer. […] Each parameter was calculated using Biacore T200 Evaluation Software (GE Healthcare Japan Corp.).
Specifically, when the amount of the GLS3000-containing antibody bound was defined as X and the amount of the L chain one-amino acid altered form bound was defined as Y, a value of Z (ratio of amounts bound)=Y/X was used.

T1 sequence (P07766 23-126): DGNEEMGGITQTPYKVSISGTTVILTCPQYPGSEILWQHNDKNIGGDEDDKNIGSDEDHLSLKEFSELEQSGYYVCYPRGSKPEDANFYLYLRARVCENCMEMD

ratio of amounts bound (altered form / unaltered GLS3000 antibody)	Binder
1.03	GLS3000 S27eA one-arm antibody (H chain CE115HA000) (antibody, human IgG1, kappa, L234A L235A, N297A, name in Kabat numbering, one-arm antibody) heavy: QVQLVESGGGVVQPGRSLRLSCAASGFTFSNAWMHWVRQAPGKGLEWVAQIKAKSNNYATYYAESVKGRFTISRDDSKNSLYLQMNSLKTEDTAVYYCRYVHYGAYYGVDAWGQGTTVTVSSASTKGPSVFPLAPSSKSTSGGTAALGCLVKDYFPEPVTVSWNSGALTSGVHTFPAVLQSSGLYSLSSVVTVPSSSLGTQTYICNVNHKPSNTKVDKKVEPKSCDKTHTCPPCPAPEAAGGPSVFLFPPKPKDTLMISRTPEVTCVVVDVSHEDPEVKFNWYVDGVEVHNAKTKPREEQYASTYRVVSVLTVLHQDWLNGKEYKCKVSNKALPAPIEKTISKAKGQPREPQVYTLPPSRCELTKNQVSLSCAVKGFYPSDIAVEWESNGQPENNYKTTPPVLDSDGSFFLVSKLTVDKSRWQQGNVFSCSVMHEALHNHYTQKSLSLSPDYKDDDDK EPKSSDKTHTCPPCPAPELLGGPSVFLFPPKPKDTLMISRTPEVTCVVVDVSHEDPEVKFNWYVDGVEVHNAKTKPREEQYNSTYRVVSVLTVLHQDWLNGKEYKCKVSNKALPAPIEKTISKAKGQPREPQVCTLPPSRDELTKNQVSLWCLVKGFYPSDIAVEWESNGQPENNYKTTPPVLDSDGSFFLYSKLTVDKSRWQQGNVFSCSVMHEALHNRYTQKSLSLSP light: DIVMTQSPLSLPVTPGEPASISCRSSQSLVHANRNTYLHWYQQKPGQAPRLLIYKVSNRFSGVPDRFSGSGSGTDFTLKISRVEAEDVGVYYCGQGTQVPYTFGQGTKLEIKRTVAAPSVFIFPPSDEQLKSGTASVVCLLNNFYPREAKVQWKVDNALQSGNSQESVTEQDSKDSTYSLSSTLTLSKADYEKHKVYACEVTHQGLSSPVTKSFNRGEC
0.76	GLS3000 S27eE one-arm antibody (H chain CE115HA000) (antibody, human IgG1, kappa, L234A L235A, N297A, name in Kabat numbering, one-arm antibody) heavy: QVQLVESGGGVVQPGRSLRLSCAASGFTFSNAWMHWVRQAPGKGLEWVAQIKAKSNNYATYYAESVKGRFTISRDDSKNSLYLQMNSLKTEDTAVYYCRYVHYGAYYGVDAWGQGTTVTVSSASTKGPSVFPLAPSSKSTSGGTAALGCLVKDYFPEPVTVSWNSGALTSGVHTFPAVLQSSGLYSLSSVVTVPSSSLGTQTYICNVNHKPSNTKVDKKVEPKSCDKTHTCPPCPAPEAAGGPSVFLFPPKPKDTLMISRTPEVTCVVVDVSHEDPEVKFNWYVDGVEVHNAKTKPREEQYASTYRVVSVLTVLHQDWLNGKEYKCKVSNKALPAPIEKTISKAKGQPREPQVYTLPPSRCELTKNQVSLSCAVKGFYPSDIAVEWESNGQPENNYKTTPPVLDSDGSFFLVSKLTVDKSRWQQGNVFSCSVMHEALHNHYTQKSLSLSPDYKDDDDK EPKSSDKTHTCPPCPAPELLGGPSVFLFPPKPKDTLMISRTPEVTCVVVDVSHEDPEVKFNWYVDGVEVHNAKTKPREEQYNSTYRVVSVLTVLHQDWLNGKEYKCKVSNKALPAPIEKTISKAKGQPREPQVCTLPPSRDELTKNQVSLWCLVKGFYPSDIAVEWESNGQPENNYKTTPPVLDSDGSFFLYSKLTVDKSRWQQGNVFSCSVMHEALHNRYTQKSLSLSP light: DIVMTQSPLSLPVTPGEPASISCRSSQSLVHENRNTYLHWYQQKPGQAPRLLIYKVSNRFSGVPDRFSGSGSGTDFTLKISRVEAEDVGVYYCGQGTQVPYTFGQGTKLEIKRTVAAPSVFIFPPSDEQLKSGTASVVCLLNNFYPREAKVQWKVDNALQSGNSQESVTEQDSKDSTYSLSSTLTLSKADYEKHKVYACEVTHQGLSSPVTKSFNRGEC
0.69	GLS3000 S27eD one-arm antibody (H chain CE115HA000) (antibody, human IgG1, kappa, L234A L235A, N297A, name in Kabat numbering, one-arm antibody) heavy: QVQLVESGGGVVQPGRSLRLSCAASGFTFSNAWMHWVRQAPGKGLEWVAQIKAKSNNYATYYAESVKGRFTISRDDSKNSLYLQMNSLKTEDTAVYYCRYVHYGAYYGVDAWGQGTTVTVSSASTKGPSVFPLAPSSKSTSGGTAALGCLVKDYFPEPVTVSWNSGALTSGVHTFPAVLQSSGLYSLSSVVTVPSSSLGTQTYICNVNHKPSNTKVDKKVEPKSCDKTHTCPPCPAPEAAGGPSVFLFPPKPKDTLMISRTPEVTCVVVDVSHEDPEVKFNWYVDGVEVHNAKTKPREEQYASTYRVVSVLTVLHQDWLNGKEYKCKVSNKALPAPIEKTISKAKGQPREPQVYTLPPSRCELTKNQVSLSCAVKGFYPSDIAVEWESNGQPENNYKTTPPVLDSDGSFFLVSKLTVDKSRWQQGNVFSCSVMHEALHNHYTQKSLSLSPDYKDDDDK EPKSSDKTHTCPPCPAPELLGGPSVFLFPPKPKDTLMISRTPEVTCVVVDVSHEDPEVKFNWYVDGVEVHNAKTKPREEQYNSTYRVVSVLTVLHQDWLNGKEYKCKVSNKALPAPIEKTISKAKGQPREPQVCTLPPSRDELTKNQVSLWCLVKGFYPSDIAVEWESNGQPENNYKTTPPVLDSDGSFFLYSKLTVDKSRWQQGNVFSCSVMHEALHNRYTQKSLSLSP light: DIVMTQSPLSLPVTPGEPASISCRSSQSLVHDNRNTYLHWYQQKPGQAPRLLIYKVSNRFSGVPDRFSGSGSGTDFTLKISRVEAEDVGVYYCGQGTQVPYTFGQGTKLEIKRTVAAPSVFIFPPSDEQLKSGTASVVCLLNNFYPREAKVQWKVDNALQSGNSQESVTEQDSKDSTYSLSSTLTLSKADYEKHKVYACEVTHQGLSSPVTKSFNRGEC
1.32	GLS3000 S27eF one-arm antibody (H chain CE115HA000) (antibody, human IgG1, kappa, L234A L235A, N297A, name in Kabat numbering, one-arm antibody) heavy: QVQLVESGGGVVQPGRSLRLSCAASGFTFSNAWMHWVRQAPGKGLEWVAQIKAKSNNYATYYAESVKGRFTISRDDSKNSLYLQMNSLKTEDTAVYYCRYVHYGAYYGVDAWGQGTTVTVSSASTKGPSVFPLAPSSKSTSGGTAALGCLVKDYFPEPVTVSWNSGALTSGVHTFPAVLQSSGLYSLSSVVTVPSSSLGTQTYICNVNHKPSNTKVDKKVEPKSCDKTHTCPPCPAPEAAGGPSVFLFPPKPKDTLMISRTPEVTCVVVDVSHEDPEVKFNWYVDGVEVHNAKTKPREEQYASTYRVVSVLTVLHQDWLNGKEYKCKVSNKALPAPIEKTISKAKGQPREPQVYTLPPSRCELTKNQVSLSCAVKGFYPSDIAVEWESNGQPENNYKTTPPVLDSDGSFFLVSKLTVDKSRWQQGNVFSCSVMHEALHNHYTQKSLSLSPDYKDDDDK EPKSSDKTHTCPPCPAPELLGGPSVFLFPPKPKDTLMISRTPEVTCVVVDVSHEDPEVKFNWYVDGVEVHNAKTKPREEQYNSTYRVVSVLTVLHQDWLNGKEYKCKVSNKALPAPIEKTISKAKGQPREPQVCTLPPSRDELTKNQVSLWCLVKGFYPSDIAVEWESNGQPENNYKTTPPVLDSDGSFFLYSKLTVDKSRWQQGNVFSCSVMHEALHNRYTQKSLSLSP light: DIVMTQSPLSLPVTPGEPASISCRSSQSLVHFNRNTYLHWYQQKPGQAPRLLIYKVSNRFSGVPDRFSGSGSGTDFTLKISRVEAEDVGVYYCGQGTQVPYTFGQGTKLEIKRTVAAPSVFIFPPSDEQLKSGTASVVCLLNNFYPREAKVQWKVDNALQSGNSQESVTEQDSKDSTYSLSSTLTLSKADYEKHKVYACEVTHQGLSSPVTKSFNRGEC
